Experiment: yeast display, Sf9 membrane polyspecificity reagent, FACS + sequencing; frameworks hold sequencing errors
In short: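 Using colony PCR, genes from sorted yeast display clones were amplified, then sequenced on MiSeq at 2 × 250 and filtered by CDR length. The clones had been stained with 10% biotinylated, detergent-solubilized Sf9 membrane reagent for 1 hour at 4 °C and sorted by FACS into low and high (top ~1%) gates on anti-HA and streptavidin fluorescence. Polyreactivity labels come from the gate of origin.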

Row | Sequence | polyreactivity (PSR sort gate)
1 | QVQLVESGGGLVQAGGSLRLSCAASGYIFIDYAMGWYRQAPGKERELVAAIRWSDSTYYADSVKGRFTISRDNAKNTVYLEMNSLKPEDTAVYYCAAEDSIRWVRRSRWYYYWGQGTQVTVSS | low polyreactivity
2 | QVQLVESGGGLVQAGGSLRLSCAASGYIFLANAMGWYRQAPGKERELVARIDTRGDSTYYADSVKGRFTISRDTAKNTVYLQMNSLKPEDTAVYYCAADQQTWWQYSLINEYDYWGQGTQLTVSS | low polyreactivity
3 | QVQLVESGGGLVQAGGSLRLSCAASGYIFLRNAKGWSRQAPGKERELVAAIRRTGGSTYYADSVKGRFTISRDIAKNTVYLDMNSLKPEDTAVYYCAKRSYTGYEYLGQGTQVTVSS | low polyreactivity
4 | QVQLVESGGGLVQAGGSLRLSCAASGYIFLRNAMGWYRQAPGKERELVAAIRRTGGSTYYADSVKGRFTISRDNAKNTVYLQMNSLKPEDTAVYYCAKRSYTGYEYWGQGTQVTVSS | low polyreactivity
5 | QVQLVESGGGLVQAGGSLRLSCAASGYIFNYAMGWYRQAPGKERQLVAAISRRGGSTYYADSVKGRFTISRDNAKNTVYLQMISLKPEDTAVYYCADRLPGYYGIGDYWGQGSQVTVSS | high polyreactivity
6 | QVQLVESGGGLVQAGGSLRLSCAASGYIFNYNAMGWYRQAPGKERELVAVIRVSVGSTYYADSVKGRFTISRDNAKNTVYLQMNSLKPEDTAVYYCAADRGARGDYWGQGTQVTVSS | high polyreactivity
7 | QVQLVESGGGLVQAGGSLRLSCAASGYIFPAYGMGWYIQAPGKERELVAAISWSTGSTYYADSVKGRFTISRDNAKNTVYLQMNSLKPEDTAVYYCDAGRPRRVPDHWYIYYYWGQATQVTVSS | low polyreactivity
8 | QVQLVESGGGLVQAGGSLRLSCAASGYIFPPYAMGWYRQAPGKERELVATITGIGGSTYYADSVKGRFTISRDNAKNTVYLQMNSLKPEDTAVYYCAARRDGYGTHYDYWGQGTQVTVSS | low polyreactivity
9 | QVQLVESGGGLVQAGGSLRLSCAASGYIFPYYTMGWYRQAPGKERELVAAITIGGSTYYADSVKGRFTISRDNAKNTVYFQMNSLKPVDTAVYYCAARSRYYDTRFDYWGQGTQVTVSS | low polyreactivity
10 | QVQLVESGGGLVQAGGSLRLSCAASGYIFQYNAMGWYRQAPGKERELVAAISRGGRTNYADSVKGRFTISRDNAKNTVYLQMNSLNPEDTAVYFCAAKRPWGYYPWSTQTGDYWGQGTQVTVSS | high polyreactivity
11 | QVQLVESGGGLVQAGGSLRLSCAASGYIFRFYTMGWYRQAPGKERELVASITRSGGSTYYADSVKGRFTISRDNAKNTVYLQMNSLKPEDTAVYYCNARKTVGMDYWGQGTQVTVSS | low polyreactivity
12 | QVQLVESGGGLVQAGGSLRLSCAASGYIFRSYAMGWYRQAPGKERELVATISWIGGGTSYADSVKGRFTISRDNAKNTVYLHMNSLIPVDTAVYYCAAGPWAYGRRHAYYSRSFDYWGQGTQVTVSS | high polyreactivity
13 | QVQLVESGGGLVQAGGSLRLSCAASGYIFRSYAMGWYRQAPGKERELVATISWIGGGTSYADSVKGRFTISRDNAKNTVYLQMNSLKPEDTAVYYCAAGPWAYGRRHAYYSRSFDYWGQGTQVTVSS | high polyreactivity
14 | QVQLVESGGGLVQAGGSLRLSCAASGYIFRVYAMGWYTPAPGKERELVAAISGSGGRTYYADSVKGRFKFSLDIAKNTVYLKMNSLKREDTAVYYCAATLYYYVGVRYDYWGQGSQVTVSS | high polyreactivity
15 | QVQLVESGGGLVQAGGSLRLSCAASGYIFRYNEMGWYRQAPGKERALVAAIRATGGSTYYADSVKGRFTISRDNAKNTVYLQMNSLKPEDTAVYYCNAGGQGRTYRYYYWGQGTQVTVSS | high polyreactivity
16 | QVQLVESGGGLVQAGGSLRLSCAASGYIFRYYAMGWYRQAPGKERELVAVISSTGTSTYYADSVKGRFTISRDNAKNTVYLQMNSLKPEDTAVYYCAVKGYFSYWRYQSDYWGQGTQVTVSS | high polyreactivity
17 | QVQLVESGGGLVQAGGSLRLSCAASGYIFRYYVMGWYRQEPGKERELVAAITFSGGNTYYADSVKGRFTISRDNAKITVYLQMNSLKPEDTAVYYCAADVLYVGGSDYDYWVQGTQVTVSS | low polyreactivity
18 | QVQLVESGGGLVQAGGSLRLSCAASGYIFSAYAMGWSRQAPGKERELVAVITSGGGTYYADSVKGRFTISRDNAKNTVYLLMNSLKTEDTAVYYCAAGPLCPYASRYGYWGQGTQVTVSS | high polyreactivity
19 | QVQLVESGGGLVQAGGSLRLSCAASGYIFSDNTMGWYRPAPGKERELVAVITSGTSTSYADSVKGRFTISRDNAKNTVYLQMNSLKPEDTAVYDCARESVTYFWYYTPEVDYWGQGTQVTVSS | low polyreactivity
20 | QVQLVESGGGLVQAGGSLRLSCAASGYIFSGYARGWYRKAPGKERELVAAISSNGGSTYYADSVKGRFTISRDNANNTVYVQMNSLKPEDTAVYYCNRGLAARVGRGDYWGQGTQVTVSS | low polyreactivity
21 | QVQLVESGGGLVQAGGSLRLSCAASGYIFSRYAMGWYRQAPGKERELVAAITRSGTRTYYADSVKGRFTISRDNAKNTVYLQMNSLKPEDTAVYYCAKEYLYSSGFDYWGQGTQVTVSS | high polyreactivity

Row | Sequence | polyreactivity (PSR sort gate)
22 | QVQLVESGGGLVQAGGSLRLSCAASGYIFTSYATMGWYRQAPGKERELVATISSGGSTNYADSVKGRVTISRDNAKNTVYLQMNSLKPEDTAVYYCYADRFYTYWGYSWVYPSGSWGQGTQVTVSS | low polyreactivity
23 | QVQLVESGGGLVQAGGSLRLSCAASGYIFTYYAMGWYRQAPGKERELVAAISRGGSTYYADSVKGRFTISRDNAKYTVYLQMNSLKPEDTAVYYCNARPRWPWVVNFGYYYWGQGTQVTVSS | low polyreactivity
24 | QVQLVESGGGLVQAGGSLRLSCAASGYIFVNAMGWYRQAPGKERELVAAISSGRSTHYADSVKGRFTISLDNAKNTVYLQLNSLKPEDTAVYYCNADLYSWYWAGYNYWGQGTQVTVSS | high polyreactivity
25 | QVQLVESGGGLVQAGGSLRLSCAASGYIFVRNAMGWSRQAPGKERELVAAISRTDGTTYYADSVKGRFTISRDNAKNTVYLQMNSLIPEDTAVYYCAADYLRAPYYQYEYWGQGTQVTVSS | low polyreactivity
26 | QVQLVESGGGLVQAGGSLRLSCAASGYIFVVNAMGWYRQAPGKERELVAAIDWGGGSTYADSVKGRFTISRDNAKNTVYLQMNSLKPEDTAVYYCAADLWPYPNDYWGQGTQVTVSS | low polyreactivity
27 | QVQLVESGGGLVQAGGSLRLSCAASGYIFWFNAMGWYRQAPGKERELVAAITSSDASTNYADSVKGRFTISRDNAKNTVYLQMNSLKPEDTAVYYCAKSSYPRDGYESWGQGTQVTVSS | low polyreactivity
28 | QVQLVESGGGLVQAGGSLRLSCAASGYIFWINAMGWYRHAPGKERDLVAAIRYSTGRTYYADSVKGRFTISRDNAKNTVYLQMNSLKPEDTAVYYCNARSWYIRGSQEYYYWGQGTQVTVSS | high polyreactivity
29 | QVQLVESGGGLVQAGGSLRLSCAASGYIFYAYAMGWYRQAPGKERELVAAISSGGGRTYYADSVKGRFTISRDNAKNTVYLQMNSLKPEDTAVYYCAARRRDRGEYYYWGQGTQVTVSS | high polyreactivity
30 | QVQLVESGGGLVQAGGSLRLSCAASGYIFYDYAMGWYRQAPGKERELVAAIRRSTGTTYYADSVKGRFTISRDNAKNTVYLQMNSLKPEDTAFYYCAALFRPRVHRYDYWGQGTQVTVSS | low polyreactivity
31 | QVQLVESGGGLVQAGGSLRLSCAASGYIFYFNAMGWYRQAPGKERELVAAISSRGTGTYADSVKGRFTISRDNAKNTVYLQMNSLKPEDTAVYYCNAYPSIYPGFYKTFFNMDYWGQGTQVTVSS | low polyreactivity
32 | QVQLVESGGGLVQAGGSLRLSCAASGYIFYFNAMGWYRQAPGKERELVAVISDRDDSTYYADSVKGRFTISRDNAKNTVYLQMNSLKPEDTAVYYCAADGDTYVDDPYDYWGQGTQVTVSS | low polyreactivity
33 | QVQLVESGGGLVQAGGSLRLSCAASGYIFYGYAMGWYRQAPGKERELVAAITGDGASTNYADSVKGRFTISRDNAKNTVYLQMNSLKPEDTAVYYCNAGRESDDVYEGSQRIGQFDYWGQGTQVTVSS | low polyreactivity
34 | QVQLVESGGGLVQAGGSLRLSCAASGYIFYPYTMGWYRPAPGKERELVAAITRSGSSTYYADSVKGRFTISRDNAKNTVYLQMNSLKPEDTAVYYCAAQRVNWYLSPSLYYYWGQGTQVTVSS | high polyreactivity
35 | QVQLVESGGGLVQAGGSLRLSCAASGYIFYRNAMGWYRQAPGKEREFVAAISSSGVSTYYADSVKGRFTISRDNAKNTVYLQMNSLKPEDTAVYYCAASYLTWKRRYDYWGQGTQVTVSS | high polyreactivity
36 | QVQLVESGGGLVQAGGSLRLSCAASGYIFYYNTMGWYRQAPGKERELVAAISSAGSTNYADSVKGRFTISRDNAKNTVYLQMNSRKPEDTAVYYCAARTRFSYRRNSYGYWGQGTQVNVSS | high polyreactivity
37 | QVQLVESGGGLVQAGGSLRLSCAASGYIIGGNAMGWYRQAPAKERELVAVISSRGGRTYYADSVKGRFTISRDNAKNTVSLQMNSQKPEDTAVYDCASIRYRGARGSGDKIFYYWGQGTQVTVSS | high polyreactivity
38 | QVQLVESGGGLVQAGGSLRLSCAASGYILWNAMGCYRQAPGKDRELVAAISSGGSTNYADSVKGRFTISRDNAKNTVYLQMNSLKPEDTAVYYCNTDRFWPSDYWGQGTQVTVSS | low polyreactivity
39 | QVQLVESGGGLVQAGGSLRLSCAASGYILYPYAMGWYRQAPGKERELVAAIRQRGGSTYYADSVKGRFTISRDNAKNTVYLQMNSLKPEDTAVYYCAAYLSPKRALTRGYGYWGQGTQVTVSS | high polyreactivity
40 | QVQLVESGGGLVQAGGSLRLSCAASGYIYIVYSMGWYRQAPVKERELVAAISSGGITDYADSVKGRFTISRDNAKNTVYLQMNSLKPEDTAVYYWGQGTQVTVSA | low polyreactivity
41 | QVQLVESGGGLVQAGGSLRLSCAASGYNFGVYAMGWYRQAPRKERELVARITSGGSTNYADSVKGRFTISRDNAKITVYLQMNSLKPEDTAVYYCAAAVGNTDREYDYWGQGTQVTVSS | low polyreactivity
